{"source": "paper PMC3597819", "about": "(The Journal of Biological Chemistry, 2013)", "target": "the molecule itself", "test": "crystal structure"}
{"protein": "KLHL11 BTB-BACK domains (residues 67-340) (domain or fragment, human, UniProt Q9NVR0 67-340, looked up) EAEDFECSSHCSELSWRQNEQRRQGLFCDITLCFGGAGGREFRAHRSVLAAATEYFTPLLSGQFSESRSGRVEMRKWSSEPGPEPDTVEAVIEYMYTGRIRVSTGSVHEVLELADRFLLIRLKEFCGEFLKKKLHLSNCVAIHSLAHMYTLSQLALKAADMIRRNFHKVIQDEEFYTLPFHLIRDWLSDLEITVDSEEVLFETVLKWVQRNAEERERYFEELFKLLRLSQMKPTYLTRHVKPERLVANNEVCVKLVADAVERHALRAENIQSGT", "values": [{"measurement": "stoichiometry N", "value": 2}]}
